Where “and” joins values, the source holds several entries; their conditions need not be identical. Equal values may be shown once.
What was measured:
[1] = molecular target: T1, BUNV-N nucleocapsid protein (Bunyamwera virus, UniProt P16495 1-233); experiment: native nanoESI-MS; N:RNA 5:1; 50 mM ammonium acetate, pH 6.8 (stated for RNA-free BUNV-N); 10 uM final N protein (monomer basis); temperature not given; conditions: protein: recombinant; tags: His6-SUMO, removed
[2] = molecular target: T2, SBV-N nucleocapsid protein (Schmallenberg virus, UniProt H2AM13 1-233); experiment: native nanoESI-MS; N:RNA 3:1, 4:1 (major), 4:2, 5:2; 50 mM ammonium acetate, pH 6.8 (stated for RNA-free BUNV-N); 10 uM final N protein (monomer basis); temperature not given; conditions: protein: recombinant; tags: His6-SUMO, removed; chain copies: 4
T2 sequence: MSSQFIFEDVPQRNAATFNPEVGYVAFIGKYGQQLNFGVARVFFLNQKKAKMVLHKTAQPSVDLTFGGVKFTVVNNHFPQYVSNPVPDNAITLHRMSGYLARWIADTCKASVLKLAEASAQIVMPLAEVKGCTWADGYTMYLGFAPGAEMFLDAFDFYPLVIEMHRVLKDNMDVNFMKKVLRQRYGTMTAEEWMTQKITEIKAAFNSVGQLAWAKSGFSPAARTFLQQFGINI

[3] = molecular target: T1, BUNV-N nucleocapsid protein; experiment: native nanoESI-MS; N:RNA 6:1, low population; 50 mM ammonium acetate, pH 6.8 (stated for RNA-free BUNV-N); 10 uM final N protein (monomer basis); temperature not given; conditions: protein: recombinant; tags: His6-SUMO, removed
[4] = molecular target: T2, SBV-N nucleocapsid protein; experiment: native nanoESI-MS; N:RNA 4:1 and 5:1 (equal major), 6:1, 8:1; 50 mM ammonium acetate, pH 6.8 (stated for RNA-free BUNV-N); 10 uM final N protein (monomer basis); temperature not given; conditions: protein: recombinant; tags: His6-SUMO, removed; chain copies: 4
[5] = molecular target: T2, SBV-N nucleocapsid protein; experiment: native nanoESI-MS, CID MS/MS; N:RNA 4:2, 5:2; 4:2 also in mixture with BUNV-N; 50 mM ammonium acetate, pH 6.8 (stated for RNA-free BUNV-N); 10 uM final N protein (monomer basis); temperature not given; conditions: protein: recombinant; tags: His6-SUMO, removed; chain copies: 4
[6] = molecular target: T1, BUNV-N nucleocapsid protein; experiment: native nanoESI-MS, CID MS/MS; N:RNA 3:1, 4:2 (major), 5:2, 6:3; 4:2 also in mixture with SBV-N; 50 mM ammonium acetate, pH 6.8 (stated for RNA-free BUNV-N); 10 uM final N protein (monomer basis); temperature not given; conditions: protein: recombinant; tags: His6-SUMO, removed
[7] = molecular target: the molecule itself; experiment: native MS; nano-ESI-MS of RNA-free N protein (10 μM monomer) incubated with synthetic 24-mer RNA
[8] = molecular target: the molecule itself; experiment: native MS; nano-ESI-MS of RNA-free N protein (10 μM monomer) incubated with synthetic 12-mer RNA; 2:1 N/RNA molar ratio for BUNV-N
[9] = molecular target: the molecule itself; experiment: native MS; nano-ESI-MS of BUNV-N bound to endogenous E. coli RNA (as purified; traces also left after the RNA-removal step); ammonium acetate buffer pH 6.8
[10] = molecular target: the molecule itself; experiment: native MS; nano-ESI-MS of RNA-free N protein (10 μM monomer) incubated with synthetic 48-mer RNA
[11] = molecular target: the molecule itself; experiment: native MS; nano-ESI-MS of RNA-free N protein (10 μM monomer) incubated with synthetic 60-mer RNA
[12] = molecular target: T2, SBV-N nucleocapsid protein; experiment: native nanoESI-MS; N:RNA 4:4 (major), 8:8, 10:10, 12:12; 50 mM ammonium acetate, pH 6.8 (stated for RNA-free BUNV-N); 10 uM final N protein (monomer basis); temperature not given; conditions: protein: recombinant; tags: His6-SUMO, removed; chain copies: 4
[13] = molecular target: T1, BUNV-N nucleocapsid protein; experiment: native nanoESI-MS; N:RNA 3:2, 3:3, 4:4 (3:3 and 4:4 major); mixed at 2:1; 50 mM ammonium acetate, pH 6.8 (stated for RNA-free BUNV-N); 10 uM final N protein (monomer basis); temperature not given; conditions: protein: recombinant; tags: His6-SUMO, removed

B1: 48-mer RNA (ssRNA)
RNA: AGUAGUGUACUCCACACUACAAACUUGCUAUUGUUGAAAAUCGCUGUG
[1]
  binding result: binds
[2]
  binding result: binds

B2: 60-mer RNA (ssRNA)
RNA: AGUAGUGUACUCCACACUACAAACUUGCUAUUGUUGAAAAUCGCUGUGCUAUUAAAUCCA
[3]
  binding result: binds
[4]
  binding result: binds

B3: 24-mer RNA (ssRNA)
RNA: AGUAGUGUACUCCACACUACAAAC
[5]
  binding result: binds
[6]
  binding result: binds

B4: Bunyamwera virus nucleocapsid (N) protein (natural protein)
chain: MIELEFHDVAANTSSTFDPEVAYANFKRVHTTGLSYDHIRIFYIKGREIKTSLAKRSEWEVTLNLGGWKITVYNTNFPGNRNNPVPDDGLTLHRLSGFLARYLLEKMLKVSEPEKLIIKSKIINPLAEKNGITWNDGEEVYLSFFPGSEMFLGTFRFYPLAIGIYKVQRKEMEPKYLEKTMRQRYMGLEAATWTVSKLTEVQSALTVVSSLGWKKTNVSAAARDFLAKFGINM
notes: Nucleocapsid (N) protein of Bunyamwera virus (BUNV); As purified it carries E. coli RNA (tetramer with about 44 nt); the RNA-free form is obtained by high salt treatment; also called BUNV-N; BUNVN; source: tag removed; endogenous RNA removed with high ionic strength buffers where stated
[7]
  stoichiometry N: 5 and 6
[8]
  stoichiometry N: 3
[9]
  stoichiometry N: 4

B5: Schmallenberg virus nucleocapsid (N) protein (natural protein)
chain: T2 sequence
notes: Nucleocapsid (N) protein of Schmallenberg virus (SBV); measured monomer mass 26 269 Da; also called SBV-N; SBVN; source: tag removed; high salt-treated
[7]
  stoichiometry N: 5
[10]
  stoichiometry N: 3
[11]
  stoichiometry N: 6
[8]
  stoichiometry N: 4 and 8 and 10 and 12

B6: 12-mer RNA (ssRNA)
RNA: AGUAGUGUACUC
[12]
  binding result: binds
[13]
  binding result: binds

— paper PMC4377080, “Probing Bunyavirus N protein oligomerisation using mass spectrometry” (Rapid Communications in Mass Spectrometry, 2014)
